The series is described as follows: label from the status in PepcDB records.
Consider “MSDYYLFAGRLFIAVMYVLSGANKLLFFSHGLDEVKSRNLPFPQLALSATIAVQLICGLAIMAGFQTTTASLLLALFTLATAVLFYDFWNQEGAQRTLMFTGFLEHISIIGGFALLMGAGPGKFVLLP”, for which the protein production entry is “failed”.

Take “MSEADGLRQRRPLRPQVVTDDGQVPEVKEGSSFSGRVFRMTFLMLAVSLAIPLLGAMMLLESPIDPQSFSFKEPPFMFGVLHPNTKLRQAERLFENQLSGPESIVNIGDVLFTGTADGRVVKLENGEIETIARFGSGPCKTRDDEPTCGRPLGIRAGPNGTLFVVDAYKGLFEVNPQKRSVKLLLSSETPIEGKKMSFVNDLTVTRDGRKIYFTDSSSKWQRRDYLLLVMEATDDGRLLEYDTVTKEVKVLLDQLQFPNGVQLSPEEDFVLVAETTMARIRRVYVSGLMKGGADMFVENMPGFPDNIRPSSSGGYWVAAATIRANPGFSMLDFLSDKPFIKRMIFKMFSQETVMKFVPRYSLVLEVSDSGAFRRSLHDPDGQVVTYVSEAHEHDGYLYLGSFRSPFICRLSLQSI”: the protein production entry was “failed”.

As for “MSEDLMDLSPEEGIERFLRHREPSVRESTMRNAKTRLRFFNEWCEERDIENLNNLTGRDLADFVAWRRGDIAALTLQKQLSTIREALRYWADIEGVDDGLAEKVHAPELEHHHHHH”, the protein production result is “failed”.

With “MSEEEQGSGTTTGCGLPSIEQMLAANPGKTPISLLQEYGTRIGKTPVYDLLKAEGQAHQPNFTFRVTVGDTSCTGQGPS”, the protein production result was “failed”.

Regarding “MSEELMISPAAPAAPAAGSALTSAQFRKLAEVPPEIEWFANIDSLQTRRAYQNDLRGFMAFAGIVSPEDFRLITRSHVLAWRKRLEEEQLGGATIRRKLAALSSLFEYLCEANAVTHNPVKGVKRPPVESWQGKTPALGDVQARALLEAPNAKTLKGKRDRAILSALLYHGIRREELARLKVKDYNQSRRGVPHLRIKGKGGKMRFIPTHPGTLTLIEEYLEAAGHGHDPDAPLFRPVKNNVHGHTLTALTPDSIYFEVVLKYLRKLGIFGENMGPHVMRATAATNALDNGADIAKVQEWLGHANIATTRIYDHRKTRPEDSPTFKVSY”, the protein production result is given as “failed”.

As for “MSEEQHILEVLQSDDAEQVREAAYSAGELRLEAAVPHLVRHLQSQNIGVQEAVDNALRKIGGAAAVAGVIPLLRSDDAPIRNISMDILRDIGRDEFDALKQLLHDEDPDIRIFASDILGTSGSILAVPALCEALLRDPEVNVRYQAAVSLGTLAFPEAADCLNKAMQDEEWVQFSVIEALIKIRAESSVNALVKALDTTSDLVASMIVDALGEMGNLKAVPLLLKRIEKSPTPLRNKIVRAIVSILGKKSLSLLGEREQQRLGAYLLAALDDEDEEVQDAAMVGLASLGQAEATVAVLRLAARLDPDRDHERLEAAIRCIGGIGFNEAVEEALSDENESTILMVVEAAADMNPAEIVPALKRIFWDKGRDAQRAIATQLARIASLEDVDFFLDLLERAEDAHVIKAALHFLGHRARPAGVGERMLALLDHPYDDVKEAALEACIALQDVSLCASFRERFHSGDPLQRMMATYAMGRLDVDGNLDVLREALVDDVPDVRKVALEALAGTCPITPEHLELVVPLMHDPVREVRLALVDLFGACPEESVIGHLLEALDDEDDWVRVRAIEALGRLGRKECVTPLIERVDGAGNLVLLKIIEALGSIGGNMAFRALLALMEHEDPEIQQAAEDAVARLGEQDSEGE”, the protein production entry is on record as “failed”.

Regarding “MSEFHSEISTLSPAPLWQFFDKICSIPHPSKHEEALAQYIINWATEQGFDVRRDPTGNVFIKKPATPGMENKKGVVLQAHIDMVPQKNEDTDHDFTKDPIQPYIDGEWVTAKGTTLGADNGIGMASCLAVLASKDIKHGPIEVLLTIDEEAGMTGAFGLEAGWLEGDILLNTDSEQEGEVYMGCAGGIDGAMTFDIKRDAIPTGFVTRQLTLKGLKGGHSGCDIHTGRGNANKLLGRFLAGHAQELDLRLVEFRGGSLRNAIPREAFVTVAVPAENQEKLAELFNYYTELLKAELGKVETGIVTFNEEIVTESQAFTAADQQRFIAALNACPNGVMRMSDEIEGVVETSLNVGVITTEENKVTVLCLIRSLIDSGRSQVESMLRSVAELAGAQVEFSGAYPGWKPDADSEIMAIFRDMYEGIYGHKPNIMVIHAGLECGLFKEPYPNMDMVSFGPTIKFPHSPDEKVKIDTVQLFWDQMVALLEAIPEKALEHHHHHH”, the protein production entry is on record as “not failed”.

Regarding “MSEFRPVPTTDREACQRILQYAFAPETGPVPPDPDGDWPPSLFDQRGLYDGGTLRAVCKLYFFDTTVRGAATTVGGLGAVATPPEHRGQGLAADLCRHALSAYRKADVGFVTLWPFSTPFYHRLGWGTANTYRRFDLPPSALPDPSTAGQLVRLDADDWERLRRVETAAAAGTALSLRRSEAWWRERTLADWDDDGVPYCYGYERDGELQGYVVYTVADDANNTLSVSNFAAVDEEARRALFAFLGHHGAQIERVTLQLPPDTDLFHRVDDPGAVDCTVEAGPMVRLTDVDYLERLDWPGGDLDCTLSVNDPLLDHNDGLFRLSVNGGTATVDPLPASDSKADVAVDIATLSQLAVGTHGVDAAERLAGLEMFDDSVRGPLADVFQPESVYLGEFF”, the protein production entry is on record as “failed”.

In the case of “MSEKELELLARIEELERHTWRNSAILRAVAMVAGTAMIGIIVASGVVGGGHGSHWTGPAWNTMWLYGLFAANAVSMFWTTHKD”, the protein production result is “failed”.

On to “MSEKKAVIGVVTISDRASKGIYEDISGKAIIDYLKDVIITPFEVEYRVIPDERDLIEKTLIELADEKGCSLILTTGGTGPAPRDVTPEATEAVCEKMLPGFGELMRQVSLKQVPTAILSRQTAGIRGSCLIVNLPGKPQSIKVCLDAVMPAIPYCIDLIGGAYIDTDPNKVKAFRPKK”, for which the protein production result is reported as “not failed”.

As for “MSELFSNDNIFLNVNVNSQNEAIEKAGKALVDSGAVTDAYIQAMKDREQVVSTFMGNGLAIPHGTDEAKTNVIHSGLTLLQIPEGVDWDGEVVKVVVGIAGKDGEHLDLLSKIAITFSEEENVDRIVQAKSAEEIKQVFEEADA”, the protein production entry is “failed”.

On to “MSERAGEKKLDLLITGVGGQGAILASDIIGKAAVISGIPIRAAETHGMAQRGGSVVNHIRLGSDLGSMIPKKGADIMLALEPMEAVRYLDFLKDGGVIIVNTQSIIPVTVTSGLSKYPEVQEILDALSEKYVVKAFNADELAHEAGSRLAMNVAMVGAVSGYLPISKEVLLESVKVLVPKKTIEINIRAFEMGREEVEES”, for which the protein production result was “not failed”.

On to “MSERIVPSGDVELWSDDFGDPADPALLLVMGGNLSALGWPDEFARRLADGGLHVIRYDHRDTGRSTTRDFAAHPYGFGELAADAVAVLDGWGVDRAHVVGLSMGATITQVIALDHHDRLSSLTMLLGGGLDIDFDANIERVMRGEPTLDGLPGPQQPFLDALALMNQPAEGRAAEVAKRVSKWRILSGTGVPFDDAEYARWEERAIDHAGGVLAEPYAHYSLTLPPPSRAAELREVTVPTLVIQAEHDPIAPAPHGKHLAGLIPTARLAEIPGMGHALPSSVHGPLAEVILAHTRSAA”, for which the protein production result is “not failed”.

“MSERVKVAILGSGNIGTDLMYKLLKNPGHMELVAVVGIDPKSEGLARARALGLEASHEGIAYILERPEIKIVFDATSAKAHVRHAKLLREAGKIAIDLTPAARGPYVVPPVNLKEHLDKDNVNLITCGGQATIPLVYAVHRVAPVLYAEMVSTVASRSAGPGTRQNIDEFTFTTARGLEAIGGAKKGKAIIILNPAEPPILMTNTVRCIPEDEGFDREAVVASVRAMEREVQAYVPGYRLKADPVFERLPTPWGERTVVSMLLEVEGAGDYLPKYAGNLDIMTASARRVGEVFAQHLLGKPVEEVVA”: the protein production entry is listed as “not failed”.

Regarding “MSETAIQTKTQARQRKVFAHHHVQHYRSQLERRISHSPQFREGKVINAMPHITATPSWWQTAWSYFGGRAQLKPNAQLPVAPLNLQALQTRSKALRVTWLGHSSLFIEVDGLRVLTDPVFDYASPWIAKAWFARNLPNSGVREQLPLPDVIVISHDHYDHLEQASVVYYAAHSVTFYVPLGVGQHLIRWGVSPERIIEFDWWEQIKREGVEFICTPANHNSGRYYLDHNATLWCSWVIKGHQETLYFSGDSAYDTHFAKIAERCGPIDLACLEVAADVKQHQGYPVENWGHMQAKHTVQAFRDLQAKKLLPIHWATYELFTHQWDEPIADLVKHCQEQSITLLTPMAGESLTMANHSASHAWWQGLETEPMSGARYWQMGLACSLLLLLMVV”, the protein production result is recorded as “failed”.

In the case of “MSETDLLLKMVRQPVKLYSVATLFHEFSEVITKLEHSVQKEPTSLLSEENWHKQFLKFAQALPAHGSASWLNLDDALQAVVGNSRSAFLHQLIAKLKSRHLQVLELNKIGSEPLDLSNLPAPFYVLLPESFAARITLLVQDKALPYVRVSFEYWHA”, the protein production entry was “not failed”.

Turning to “MSEWMKKSPLEWEDYVYKEVRVIACEKEYKGWLLTTDPVSANIVLVNFLEDGRLSVTGIMGHSVQTVETISEGDHRVREKLMHVFASGDCKGYSPEDLEEKRTSLKKWLEKNHIPVTEQGDAQRTLCVAGVLTIDPPYAPENCSSSNEIILSRIQDLIQGHLSASQ”, the protein production entry is “failed”.

For “MSEYLPGIIWLVVLLVVNAFFVGAEFAVISARRSQIEPKAEAGSKAAKTTLWAMEHATLMLATSQLGITVCSLVILNVSEPAIHHLLEIPLGLTSLSGEAIGIIAFVAALLLVTFLHVVLGEMVPKNISFSVPTRAALILAPPLVMVARILKPVIWTLNGIANSILRLFKVEPKDEATSAYTLDEVANIVEQSTRDGMLSDTSGTLTAAFEFTSKTVADVEVPIGEMVLLPATSTPADIQRAVAEHGYSRYILTDDDGTPTGYLHLKDVMDLTTREKFDQPVPAKRIRKLASAYSGSELEDALATMRRSGAHVARVFDAAGNTTGVLFLEDIIEELVGEVQDATST”, the protein production entry is “not failed”.

Regarding “MSFADLGLSDKVLQAVTTAGYTEPTPIQAQAIPHVLARRDVLGIAQTGTGKTAAFTLPMLTMLETGRARARMPRTLILEPTRELAAQVEENFERYGTNHKLNVALIIGGVSFADQDAKLTRGTDVLIATPGRLLDHFERGKLLLTGVELLVIDEADRMLDMGFIPDIERIVKMVPFTRQTLFFSATMPPEIERLADMFLHNPQRVEVARPASTATTIEQRLVATGAEGHEKRKVLRHLIRSASELQNGIIFCNRKRDVAQLQRSLTSHGFNAAALHGDMDQRARMAALDGFRSGEVPLLVASDVAARGLDIPAVSHVFNFDVPHHPEDYVHRIGRTGRAGRSGQAFTLASRSDERSLSAIESLIGQPIAWLDGDLASVSDEVEGDEPRRRRGSRRAKETKGGEETKSGGRSTERSAAPASESPRSENRSRGGRRPAAERSRADAPRRDPVREPEPVAVVPSAPPAPPRELAREPVRSAPERARGERRPPRRDEDGETPVGLGSHVPAFLLKPTGFGKSK”, the protein production entry was “failed”.

With “MSFAIEALGQGRFDEVEILCREILKEVPDHFHATHLLGLRAFDGGWLEDAQFLLERAVALDPRSPDAHGNLGAVYFALERFKDARACQEKAIALKPNCPITLTNLGNTLLHLGLAKEAIELHERAIRLKPNYADAFCNRGMAELMIGQFERAGVDFDRALSFQPRHAEAIAGKAMVSLELRHFEAAEAAFEASLALKPGSPRILVQRGRLHLTLYRLEQAAADFDAALAQSPRNELALCWRAQVDIMVRNTAGAMAGVKTLLEVNPQSEAGMSLLASCHANQGDIATALEYLDAALAIAPDFPEAIGYKIFVLDYLPEADFVVQQAARKYWWDQIGAKLPQRTLSPRDLDPDRRIVIGYVASEFRQHSAAYTLLPVMRHHDHAKFKIVCYSCWPLQDGMTEKFKACADVWVEAAQFSDDELADRIQADGIDILIDVSGHTTGSRLHVFSRKPAPIQVTGFGHATGTGLQTMDYVLADPIFIPQSARHLLAEKVYDLPSLITIDPIQDVPPSELPMLRNGYVTFGVFNRILKISDEAIRVWSKVMREVAGSKIIIKNGLLDDPMLRDGLIARFVAQGIAEENVICMGSTSRREHLRAFANVDISLDTFPQNGGISTWESLYAGVPVVAKLGNGSSSRAGGSIVAAVGLGDWVADDDEGYAAIACKFAAQPAHLAKLRADLPAQIANSPAGNVEIYTREVEAGYRQFWRDYCAEASETCDVA”, the protein production entry was “failed”.

The values above are taken from a protein production outcome set (Wang et al. 2014).
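Also: failed if final PepcDB status was selected cloned or expressed and not failed if soluble or beyond.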
